Assay results taken from patent publication US20160009824A1 (Merck KGaA, published 2016).

Experiments:
[1] = molecular target: T1, CD20 expressed on cells (human Daudi Burkitt's lymphoma cells); CD20-transfected mouse NS0 cells; human … (human, UniProt P11836 1-297); experiment: flow cytometry on CD20-expressing cells (Daudi by legend paragraph 36 and paragraph 140; the method paragraph 139 names Ramos), detection with TRITC F(ab')2 goat anti-human IgG Fcγ
T1 construct: whole, on cells; SU-DHL4 cells also express CD47 at low levels; also called NS0/CD20
T1 sequence (looked up): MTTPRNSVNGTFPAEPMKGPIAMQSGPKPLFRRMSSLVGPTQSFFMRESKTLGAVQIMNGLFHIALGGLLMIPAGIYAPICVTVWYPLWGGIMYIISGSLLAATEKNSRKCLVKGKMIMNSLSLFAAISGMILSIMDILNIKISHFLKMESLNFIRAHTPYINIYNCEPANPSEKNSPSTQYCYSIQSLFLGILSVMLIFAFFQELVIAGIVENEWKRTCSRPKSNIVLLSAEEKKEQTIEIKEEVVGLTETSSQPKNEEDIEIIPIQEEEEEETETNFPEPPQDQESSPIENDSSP

[2] = molecular target: FcγRIII (CD16) on NK cells (human, UniProt P08637 17-254); experiment: cell-based or functional assay
[3] = molecular target: T1, CD20 expressed on cells (human Daudi …); experiment: flow cytometry on Daudi cells (CD20+, CD52-), detection with TRITC F(ab')2 goat anti-human IgG Fcγ
[4] = molecular target: T2, CD47 expressed on cells (human U937 histiocytic lymphoma cells; human SU-DHL4 cells; human A431 cells) (human, UniProt Q08722 19-323); experiment: flow cytometry on U937 cells (CD47+, CD20-), detection with TRITC F(ab')2 goat anti-human IgG Fcγ
T2 construct: whole, on cells

[5] = molecular target: T1, CD20 expressed on cells (human Daudi …); experiment: flow cytometry on CD20-transfected NS0 cells, detection with TRITC F(ab')2 goat anti-human IgG Fcγ

Sequence of FcγRIII (CD16) on NK cells (P08637 17-254): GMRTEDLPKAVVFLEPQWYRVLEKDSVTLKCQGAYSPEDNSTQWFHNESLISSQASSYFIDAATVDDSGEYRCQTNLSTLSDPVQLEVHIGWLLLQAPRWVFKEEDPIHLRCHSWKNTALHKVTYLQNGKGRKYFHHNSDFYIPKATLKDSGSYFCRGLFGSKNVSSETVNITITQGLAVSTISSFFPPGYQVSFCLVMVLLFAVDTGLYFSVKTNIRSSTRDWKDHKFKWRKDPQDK

B1: anti-CD20/anti-CD16 TetBiAb (bispecific antibody)
chain: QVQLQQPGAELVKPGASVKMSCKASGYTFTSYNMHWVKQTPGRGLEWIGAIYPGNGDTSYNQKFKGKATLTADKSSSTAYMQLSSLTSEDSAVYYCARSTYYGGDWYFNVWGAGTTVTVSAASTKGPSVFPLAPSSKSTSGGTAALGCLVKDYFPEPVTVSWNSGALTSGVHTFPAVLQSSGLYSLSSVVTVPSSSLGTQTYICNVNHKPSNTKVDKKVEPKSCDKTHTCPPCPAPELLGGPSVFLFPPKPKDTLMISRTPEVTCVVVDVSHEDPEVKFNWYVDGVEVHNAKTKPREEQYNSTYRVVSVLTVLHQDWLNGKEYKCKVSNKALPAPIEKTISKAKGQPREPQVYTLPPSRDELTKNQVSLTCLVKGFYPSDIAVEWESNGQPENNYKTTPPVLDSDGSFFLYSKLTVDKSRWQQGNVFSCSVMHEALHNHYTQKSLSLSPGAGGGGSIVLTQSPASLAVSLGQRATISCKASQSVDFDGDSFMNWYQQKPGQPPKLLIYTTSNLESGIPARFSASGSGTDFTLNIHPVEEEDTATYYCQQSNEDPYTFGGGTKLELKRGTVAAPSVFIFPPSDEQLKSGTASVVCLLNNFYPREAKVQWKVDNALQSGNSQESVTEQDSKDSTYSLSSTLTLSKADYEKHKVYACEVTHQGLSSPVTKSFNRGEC
light: QIVLSQSPAILSASPGEKVTMTCRASSSVSYIHWFQQKPGSSPKPWIYATSNLASGVPVRFSGSGSGTSYSLTISRVEAEDAATYYCQQWTSNPPTFGGGTKLEIKRGTVAAPSVFIFPPSDEQLKSGTASVVCLLNNFYPREAKVQWKVDNALQSGNSQESVTEQDSKDSTYSLSSTLTLSKADYEKHKVYACEVTHQGLSSPVTKSFNRGEC
heavy: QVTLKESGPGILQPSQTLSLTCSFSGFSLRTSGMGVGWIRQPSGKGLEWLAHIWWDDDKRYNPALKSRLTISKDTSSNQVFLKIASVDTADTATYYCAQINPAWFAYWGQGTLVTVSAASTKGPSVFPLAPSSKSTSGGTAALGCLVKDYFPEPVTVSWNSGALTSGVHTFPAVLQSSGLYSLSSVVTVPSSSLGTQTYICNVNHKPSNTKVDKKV
notes: Hexameric TetBiAb from 2B8 and 3G8, IgG1 Fc
With B1 the “EC50 (read off the curve)” value [1] was about 3 µg/mL and the “antibody-dependent cell-mediated cytotoxicity (ADCC), LDH release from Ramos cells with NK effector cells” value [2] was 10 fold.

B2: anti-CD20/anti-CD52 TetBiAb (bispecific antibody, human IgG1, kappa)
chain: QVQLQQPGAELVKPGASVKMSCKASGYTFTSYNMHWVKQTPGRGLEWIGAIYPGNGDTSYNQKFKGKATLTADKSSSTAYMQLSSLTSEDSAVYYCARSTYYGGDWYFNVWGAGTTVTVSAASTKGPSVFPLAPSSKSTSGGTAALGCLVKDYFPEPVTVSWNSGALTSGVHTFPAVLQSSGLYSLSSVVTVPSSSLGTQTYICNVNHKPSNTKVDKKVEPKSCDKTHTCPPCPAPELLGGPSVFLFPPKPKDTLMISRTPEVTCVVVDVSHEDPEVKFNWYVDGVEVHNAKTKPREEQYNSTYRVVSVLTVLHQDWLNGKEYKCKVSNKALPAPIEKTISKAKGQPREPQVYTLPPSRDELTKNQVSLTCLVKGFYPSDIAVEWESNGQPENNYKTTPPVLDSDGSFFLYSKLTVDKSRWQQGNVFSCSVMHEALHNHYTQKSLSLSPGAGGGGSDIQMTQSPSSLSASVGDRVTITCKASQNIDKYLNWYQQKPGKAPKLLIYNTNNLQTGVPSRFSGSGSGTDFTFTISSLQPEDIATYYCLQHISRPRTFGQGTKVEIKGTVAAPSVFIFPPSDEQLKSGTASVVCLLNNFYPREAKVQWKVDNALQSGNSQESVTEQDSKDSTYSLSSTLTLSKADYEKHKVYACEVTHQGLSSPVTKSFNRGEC
light: QIVLSQSPAILSASPGEKVTMTCRASSSVSYIHWFQQKPGSSPKPWIYATSNLASGVPVRFSGSGSGTSYSLTISRVEAEDAATYYCQQWTSNPPTFGGGTKLEIKRGTVAAPSVFIFPPSDEQLKSGTASVVCLLNNFYPREAKVQWKVDNALQSGNSQESVTEQDSKDSTYSLSSTLTLSKADYEKHKVYACEVTHQGLSSPVTKSFNRGEC
heavy: QVQLQESGPGLVRPSQTLSLTCTVSGFTFTDFYMNWVRQPPGRGLEWIGFIRDKAKGYTTEYNPSVKGRVTMLVDTSKNQFSLRLSSVTAADTAVYYCAREGHTAAPFDYWGQGSLVTVSAASTKGPSVFPLAPSSKSTSGGTAALGCLVKDYFPEPVTVSWNSGALTSGVHTFPAVLQSSGLYSLSSVVTVPSSSLGTQTYICNVNHKPSNTKVDKKVEPKSC
notes: Hexameric TetBiAb from 2B8 and Campath, IgG1 Fc
In the case of B2, the “EC50 (read off the curve)” value [3] is reported as about 5 µg/mL.

B3: anti-CD20/anti-CD47 TetBiAb (bispecific antibody, human IgG1, kappa)
chain: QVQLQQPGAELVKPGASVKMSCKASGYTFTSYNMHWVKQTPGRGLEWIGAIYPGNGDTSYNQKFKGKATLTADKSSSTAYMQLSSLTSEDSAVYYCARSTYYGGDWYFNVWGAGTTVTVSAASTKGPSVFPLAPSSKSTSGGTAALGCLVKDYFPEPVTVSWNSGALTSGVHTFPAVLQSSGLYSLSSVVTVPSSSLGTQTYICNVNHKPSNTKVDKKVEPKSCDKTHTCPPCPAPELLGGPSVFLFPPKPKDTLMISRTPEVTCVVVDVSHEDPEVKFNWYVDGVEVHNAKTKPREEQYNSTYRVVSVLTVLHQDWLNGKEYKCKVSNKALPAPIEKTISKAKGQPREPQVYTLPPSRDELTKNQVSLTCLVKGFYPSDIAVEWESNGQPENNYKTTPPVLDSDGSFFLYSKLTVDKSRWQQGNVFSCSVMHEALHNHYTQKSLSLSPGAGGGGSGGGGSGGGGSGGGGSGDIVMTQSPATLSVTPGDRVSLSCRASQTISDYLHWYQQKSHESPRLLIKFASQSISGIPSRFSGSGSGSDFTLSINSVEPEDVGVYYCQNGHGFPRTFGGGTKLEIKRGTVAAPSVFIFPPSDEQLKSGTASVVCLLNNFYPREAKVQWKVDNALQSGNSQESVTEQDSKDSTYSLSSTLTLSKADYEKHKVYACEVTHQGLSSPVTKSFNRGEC
light: QIVLSQSPAILSASPGEKVTMTCRASSSVSYIHWFQQKPGSSPKPWIYATSNLASGVPVRFSGSGSGTSYSLTISRVEAEDAATYYCQQWTSNPPTFGGGTKLEIKRGTVAAPSVFIFPPSDEQLKSGTASVVCLLNNFYPREAKVQWKVDNALQSGNSQESVTEQDSKDSTYSLSSTLTLSKADYEKHKVYACEVTHQGLSSPVTKSFNRGEC
heavy: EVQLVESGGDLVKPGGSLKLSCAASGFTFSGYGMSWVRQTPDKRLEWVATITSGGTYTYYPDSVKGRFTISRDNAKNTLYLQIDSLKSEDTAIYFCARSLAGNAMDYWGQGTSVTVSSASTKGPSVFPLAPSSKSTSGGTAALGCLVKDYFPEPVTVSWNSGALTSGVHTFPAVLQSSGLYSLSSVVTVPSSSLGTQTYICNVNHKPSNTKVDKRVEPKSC
notes: Hexameric TetBiAb from 2B8 and B6H12, IgG1 Fc; Alexa 488-labelled in the SU-DHL4 assay
With B3 the “EC50 (read off the curve)” value [4] was about 10 µg/mL and the binding result [5] was “binds”.

B4: anti-CD52/anti-CD20 TetBiAb (bispecific antibody, human IgG1, kappa)
chain: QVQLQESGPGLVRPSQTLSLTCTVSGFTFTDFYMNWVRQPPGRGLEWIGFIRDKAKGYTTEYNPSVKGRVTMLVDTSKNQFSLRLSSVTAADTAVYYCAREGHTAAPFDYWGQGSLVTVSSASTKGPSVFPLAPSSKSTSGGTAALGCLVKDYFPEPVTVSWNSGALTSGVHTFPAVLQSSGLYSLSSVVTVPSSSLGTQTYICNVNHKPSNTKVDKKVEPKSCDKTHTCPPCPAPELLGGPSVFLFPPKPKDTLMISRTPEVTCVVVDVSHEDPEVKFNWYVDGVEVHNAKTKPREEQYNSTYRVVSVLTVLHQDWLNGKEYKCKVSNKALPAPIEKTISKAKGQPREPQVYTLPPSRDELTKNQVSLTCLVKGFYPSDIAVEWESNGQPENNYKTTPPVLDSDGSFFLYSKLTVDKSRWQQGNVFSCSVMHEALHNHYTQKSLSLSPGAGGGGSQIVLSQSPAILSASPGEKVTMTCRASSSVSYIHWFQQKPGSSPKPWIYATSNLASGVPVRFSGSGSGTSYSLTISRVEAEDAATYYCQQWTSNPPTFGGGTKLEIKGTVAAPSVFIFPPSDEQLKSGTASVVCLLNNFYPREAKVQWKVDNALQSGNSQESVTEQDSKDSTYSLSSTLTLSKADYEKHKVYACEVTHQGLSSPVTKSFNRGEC
light: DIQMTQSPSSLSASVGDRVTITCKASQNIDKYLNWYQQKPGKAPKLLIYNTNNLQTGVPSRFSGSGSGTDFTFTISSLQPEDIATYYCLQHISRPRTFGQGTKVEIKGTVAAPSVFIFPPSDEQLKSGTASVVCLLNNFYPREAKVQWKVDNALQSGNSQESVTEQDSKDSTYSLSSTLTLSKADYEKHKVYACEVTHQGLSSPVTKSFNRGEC
heavy: QVQLQQPGAELVKPGASVKMSCKASGYTFTSYNMHWVKQTPGRGLEWIGAIYPGNGDTSYNQKFKGKATLTADKSSSTAYMQLSSLTSEDSAVYYCARSTYYGGDWYFNVWGAGTTVTVSAASTKGPSVFPLAPSSKSTSGGTAALGCLVKDYFPEPVTVSWNSGALTSGVHTFPAVLQSSGLYSLSSVVTVPSSSLGTQTYICNVNHKPSNTKVDKKVEPKSC
notes: Hexameric TetBiAb from Campath and 2B8, IgG1 Fc
B4: no binding (tested: 100 µg/ml) [3].
